Biological target: Tra1 (S. pombe) (UniProt Q9HFE8)
Assay: Spt7-TAP tandem affinity purification of SAGA, LC-MS/MS label-free quantification (LFQ)
Conditions: parent: 1.0

Sequence of UniProt Q9HFE8 (Q9HFE8 whole entry): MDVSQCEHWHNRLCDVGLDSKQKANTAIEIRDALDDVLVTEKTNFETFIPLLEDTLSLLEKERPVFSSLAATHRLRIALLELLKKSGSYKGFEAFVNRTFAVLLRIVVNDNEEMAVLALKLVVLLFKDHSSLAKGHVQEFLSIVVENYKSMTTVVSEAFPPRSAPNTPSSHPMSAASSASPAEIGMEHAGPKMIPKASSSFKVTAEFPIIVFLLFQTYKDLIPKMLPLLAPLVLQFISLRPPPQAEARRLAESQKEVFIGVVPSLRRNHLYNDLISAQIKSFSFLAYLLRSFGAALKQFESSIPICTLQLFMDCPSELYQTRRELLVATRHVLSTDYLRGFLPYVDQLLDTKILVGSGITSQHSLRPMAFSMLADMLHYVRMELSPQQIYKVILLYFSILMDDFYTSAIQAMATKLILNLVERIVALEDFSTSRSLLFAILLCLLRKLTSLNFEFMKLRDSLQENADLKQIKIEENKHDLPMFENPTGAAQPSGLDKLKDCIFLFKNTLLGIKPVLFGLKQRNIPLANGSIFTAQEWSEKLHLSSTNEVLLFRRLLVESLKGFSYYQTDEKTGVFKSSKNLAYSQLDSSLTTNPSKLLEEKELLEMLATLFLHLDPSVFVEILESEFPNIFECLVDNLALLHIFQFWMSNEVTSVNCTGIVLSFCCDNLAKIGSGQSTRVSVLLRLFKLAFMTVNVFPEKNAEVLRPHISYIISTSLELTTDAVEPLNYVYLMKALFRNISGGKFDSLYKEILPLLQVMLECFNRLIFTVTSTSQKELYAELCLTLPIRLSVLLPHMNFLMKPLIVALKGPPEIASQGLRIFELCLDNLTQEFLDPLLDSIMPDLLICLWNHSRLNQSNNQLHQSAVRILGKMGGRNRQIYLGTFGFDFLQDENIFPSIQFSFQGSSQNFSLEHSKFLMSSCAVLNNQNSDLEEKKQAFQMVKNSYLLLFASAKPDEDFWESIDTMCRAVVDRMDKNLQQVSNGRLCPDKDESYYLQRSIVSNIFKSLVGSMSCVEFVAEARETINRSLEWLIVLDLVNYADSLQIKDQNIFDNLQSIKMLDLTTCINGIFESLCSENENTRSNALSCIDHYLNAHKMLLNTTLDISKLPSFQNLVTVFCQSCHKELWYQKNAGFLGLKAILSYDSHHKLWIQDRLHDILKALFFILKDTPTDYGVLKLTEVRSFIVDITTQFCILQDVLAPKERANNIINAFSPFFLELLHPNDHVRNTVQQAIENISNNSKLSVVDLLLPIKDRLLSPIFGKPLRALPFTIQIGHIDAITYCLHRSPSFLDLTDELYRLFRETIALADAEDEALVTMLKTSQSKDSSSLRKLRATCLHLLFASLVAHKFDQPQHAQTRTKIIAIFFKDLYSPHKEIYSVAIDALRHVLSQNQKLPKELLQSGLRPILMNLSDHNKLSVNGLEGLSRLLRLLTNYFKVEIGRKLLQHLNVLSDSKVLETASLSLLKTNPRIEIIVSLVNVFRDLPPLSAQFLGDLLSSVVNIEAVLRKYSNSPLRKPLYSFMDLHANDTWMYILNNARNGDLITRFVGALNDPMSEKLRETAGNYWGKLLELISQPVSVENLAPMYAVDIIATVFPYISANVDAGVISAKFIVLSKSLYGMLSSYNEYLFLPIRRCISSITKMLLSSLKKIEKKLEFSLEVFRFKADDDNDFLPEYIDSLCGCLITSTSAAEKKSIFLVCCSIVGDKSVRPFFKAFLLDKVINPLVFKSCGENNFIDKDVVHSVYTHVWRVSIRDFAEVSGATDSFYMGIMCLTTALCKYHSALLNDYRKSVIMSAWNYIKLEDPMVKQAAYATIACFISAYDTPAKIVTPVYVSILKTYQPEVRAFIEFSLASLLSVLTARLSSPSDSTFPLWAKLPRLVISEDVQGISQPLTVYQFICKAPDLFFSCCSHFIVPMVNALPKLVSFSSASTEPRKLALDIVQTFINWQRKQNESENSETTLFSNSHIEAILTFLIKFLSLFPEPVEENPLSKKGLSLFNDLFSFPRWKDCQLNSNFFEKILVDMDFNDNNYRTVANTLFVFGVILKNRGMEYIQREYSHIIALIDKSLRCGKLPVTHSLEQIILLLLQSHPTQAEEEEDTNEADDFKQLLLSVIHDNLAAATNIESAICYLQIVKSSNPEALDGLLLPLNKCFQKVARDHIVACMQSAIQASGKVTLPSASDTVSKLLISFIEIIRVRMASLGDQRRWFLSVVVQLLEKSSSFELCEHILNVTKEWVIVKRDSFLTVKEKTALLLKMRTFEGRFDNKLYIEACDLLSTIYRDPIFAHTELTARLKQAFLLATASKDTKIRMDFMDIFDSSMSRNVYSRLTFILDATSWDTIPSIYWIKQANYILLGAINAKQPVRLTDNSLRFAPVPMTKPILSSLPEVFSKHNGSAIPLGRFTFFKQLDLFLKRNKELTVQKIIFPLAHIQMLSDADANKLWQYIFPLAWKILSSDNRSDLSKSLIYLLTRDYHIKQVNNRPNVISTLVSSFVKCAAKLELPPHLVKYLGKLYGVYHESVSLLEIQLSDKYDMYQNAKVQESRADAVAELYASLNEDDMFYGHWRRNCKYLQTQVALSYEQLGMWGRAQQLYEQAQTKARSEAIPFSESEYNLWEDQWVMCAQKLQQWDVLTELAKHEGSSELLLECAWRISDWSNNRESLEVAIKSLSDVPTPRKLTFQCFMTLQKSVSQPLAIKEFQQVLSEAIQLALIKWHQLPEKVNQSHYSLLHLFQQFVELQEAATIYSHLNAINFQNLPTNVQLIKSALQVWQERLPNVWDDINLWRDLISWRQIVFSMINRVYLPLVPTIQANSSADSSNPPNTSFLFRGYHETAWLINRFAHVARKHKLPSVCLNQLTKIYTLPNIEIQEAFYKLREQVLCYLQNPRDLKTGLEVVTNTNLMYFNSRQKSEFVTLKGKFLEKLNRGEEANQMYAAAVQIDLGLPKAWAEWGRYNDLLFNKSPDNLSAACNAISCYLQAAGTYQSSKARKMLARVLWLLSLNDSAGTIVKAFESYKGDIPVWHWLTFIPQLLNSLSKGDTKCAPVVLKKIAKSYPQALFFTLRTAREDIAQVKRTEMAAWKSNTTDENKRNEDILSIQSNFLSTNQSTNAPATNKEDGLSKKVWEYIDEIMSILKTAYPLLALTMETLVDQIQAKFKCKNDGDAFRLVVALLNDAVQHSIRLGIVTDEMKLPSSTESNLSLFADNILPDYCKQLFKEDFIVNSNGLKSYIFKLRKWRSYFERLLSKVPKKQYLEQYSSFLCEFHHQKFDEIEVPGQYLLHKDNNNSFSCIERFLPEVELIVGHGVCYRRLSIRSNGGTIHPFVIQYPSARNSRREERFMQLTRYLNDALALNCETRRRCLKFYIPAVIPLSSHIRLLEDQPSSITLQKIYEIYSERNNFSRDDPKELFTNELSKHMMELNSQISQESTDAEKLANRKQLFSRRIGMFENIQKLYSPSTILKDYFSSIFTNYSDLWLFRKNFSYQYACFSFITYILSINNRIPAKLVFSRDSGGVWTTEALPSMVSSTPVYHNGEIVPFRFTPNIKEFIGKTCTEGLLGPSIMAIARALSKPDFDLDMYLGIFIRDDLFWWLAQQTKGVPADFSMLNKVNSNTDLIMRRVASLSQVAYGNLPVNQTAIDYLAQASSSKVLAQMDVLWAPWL

Substance: Spt20 (S. pombe) (from UniProt O14174) FIEN>AAAA (HIT sequence … changed to …)
- ratio to parent: 0.02

Substance: Spt20 (S. pombe) (from UniProt O14174) RRKR>AAAA (HIT sequence … changed to …)
- ratio to parent: 0.51
